From article PMC4714923

Molecular target: T1, Hsp72 C-terminal tracer (Fam-…) (human)
T1 chain: GSGPTIEEVD
Test: fluorescence polarisation
Conditions: remark: other sources report otherwise

- Kd: > 75 µM
B1: Human FKBP51 (51-kDa FK506-binding protein), Q13451 1-457 (natural protein)
chain: MTTDEGAKNNEESPTATVAEQGEDITSKKDRGVLKIVKRVGNGEETPMIGDKVYVHYKGKLSNGKKFDSSHDRNEPFVFSLGKGQVIKAWDIGVATMKKGEICHLLCKPEYAYGSAGSLPKIPSNATLFFEIELLDFKGEDLFEDGGIIRRTKRKGEGYSNPNEGATVEIHLEGRCGGRMFDCRDVAFTVGEGEDHDIPIGIDKALEKMQREEQCILYLGPRYGFGEAGKPKFGIEPNAELIYEVTLKSFEKAKESWEMDTKEKLEQAAIVKEKGTVYFKGGKYMQAVIQYGKIVSWLEMEYGLSEKESKASESFLLAAFLNLAMCYLKLREYTKAVECCDKALGLDSANEKGLYRRGEAQLLMNEFESAKGDFEKVLEVNPQNKAARLQISMCQKKAKEHNERDRRIYANMFKKFAEQDAKEEANKAMGKKTSEGVTNEKGTDSQAMEEEKPEGHV
modifications: here or on the partner: 5-carboxyfluorescein (5-Fam) on the N-terminus via a 6-carbon spacer (aminohexanoic acid)
